Target: T1, Soluble CTLA-4-Ig (human, UniProt P16410 36-161, FITC-conjugated in the two-colour FACS assays; unlabelled and detected with FITC goat anti-human IgG in the concentration-dependent assay)
T1 construct: extracellular domain; Bought from R&D Systems; also called sCTLA-4-Ig; CTLA-4-Ig Fc; not shown: Fc portion of human IgG1
Assay: two-colour FACS profile on transfected cells; score of preference for CTLA-4-Ig over CD28-Ig vs WT hB7-1

T1 sequence (P16410 36-161): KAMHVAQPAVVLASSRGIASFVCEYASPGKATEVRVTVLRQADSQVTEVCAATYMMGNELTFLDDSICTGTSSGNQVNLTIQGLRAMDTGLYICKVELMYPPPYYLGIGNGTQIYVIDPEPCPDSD

| Binder | Binding Score |
| --- | --- |
| Round 2 CTLA4BP 5x2-f3 (ligand) VIHVTKEVKEVATLSCGHNVSVEELAQTRIYWQKEKKMVLTMMPGDMNIWPEYKNRTIFDITNNLSIVILALRPSDEGTYECVVLRYEKDAFKREHLAEVTLSVKADFPTPSISDFEIPTSNIRRIICSTSGGFPEPHLSWLENGEELNAINTTASQDPETELYTVSSKLDFNMTTNRSFVCLIKYGHLRVNQTFNWNTPKQEHFPDNLLPSWAITLISANGIFVICCLTHCFAPRCRERKSNERLRRESVRPV | 0 |
| Round 2 CTLA4BP 5x2-h11 (ligand) VIHVTKKVKEVATLSCGHNVSVEELAQTRIYWQKGKKMVLTMMSGDMNIWPECKNRTIFDITNNLSIVILALRPSDEGTYECAVLKYEKDAFKREHLAEVTLSVKADFPTPSISDFEIPTSNIRRIICSTSGGFPEPHLFWLENGEELNAINTTASQDPETELYAVSSKLDFNMTTNHSFMCLIKYGHLRVNQTFNWNTPKQEHFPDNLLPSWAITLISVNGIFVICCLTYCFAPRCRERKSNERLRRESVRPV | 1 |
| Round 2 CTLA4BP 5x3-c3 (ligand) VIHMTKEVKEVATLSCGPNVSVEELAQTRIYWQKEKKMVLTMMSGDMNIWPEYKNRTIFDITNNLSIVILALRPSDEGTYECVVLKYEKDAFKREHLAEVTLSVKADFPTPSISDFEIPTSNIRRIICSTSGGFPEPHLSWLENGEELNAINTTVSQDPGTELYTVSSKLDFNMTTNHSFMCLIKYGHLRVNQTFNWNTPKQEHFPDNLLPSWAITLISVNGIFVICCLTHCFAPRCRERRRNERLRRESVCPV | 1 |
| Round 2 CTLA4BP 5x3-c4 (ligand) VIHVTKEVKEVATLSCGHNVSVEELAQTRIYWQKEKKMVLTMMSGDMNIWPEYKNRTIFDITNNLSIVILALRPSDEGTYECVVLKYEKDAFKREHLAEVTLSVKADFPTPSISDFEIPPSNIRRIICSTSGGFPEPRLAWMEDGEELNAINTTASQDPETELYTVSSKLDFNMTTNRSFVCLIKYGHLRVNQTFNWNTPKQEHFPDNLFPSWAITLISVNGIFVICCLTYCFAPRCRERRRNERLRRESVRPV | 1 |
| Round 2 CTLA4BP 5x3-e8 (ligand) VIHVTKEVKEVATLSCGHNVSVEELAQTRIYWQKEKKMVLTMMSGDMNIWPEYKNRTIFDITNNLSIVILALRPSDEGTYECVVLEYEKDAFKREHLAEVTLSVKADFPTPSISDFEIPTSNIRRIICSTSGGFPEPHLFWLENGEELNAINTTVSQDPETELYTVSSKLDFNMTANHSFVCLIKYGHLRVNQTFNWNTPKQEHFPDNLLPSWAITLISVNGIFVICCLTYCFAPGCRERRRNERLRRESVCPV | 1 |
| Round 2 CTLA4BP 5x4-a1 (ligand) VIHVTKEVKEVATLSCGHNVSVEELAQTRIYWQKEKKMVLTMMSGDMNIWPEHKNRTIFDITNNLSIVILALRPSDEGTYECVVLKYEKDAFKREHLAEVTLSVKADFPTPSITDFEIPTSNIRRIICSTSGGFPEPHLSWLENGEELNAINTTVSQDPGTELYTVSSKLDFNMTTNRSFVCLIKYGHLRVNQTFNWNTPKQEHFPDNLLPSWAITLISVNGIFVICCLTYCFAPRCRERRRNERLRRESVRPV | 0 |
| Round 2 CTLA4BP 5x4-h1 (ligand) VIHVTKEVKEVATLSCGHNVSVEELAQTRIHWQKEKKMVLTMMSGDMNIWPEYKNRTIFDITNNLSIVILALRPSDEGTYECVVLKYEKDAFKRKHLAEVMLSVKADFPTPSISDFEIPTSNIRRIICSTSGGFPEPHLFWLENGEELNAINTTASQDPETELYTVSSKLDFNMTTNRSFVCLIKYGHLRVNQTFNWNTPKQEHFPNNLLPSWAITLISVNGIFVICCLTYCFAPRCRERRRNETLRRESVHPV | 2 |
| Round 2 CTLA4BP 5x5-c10 (ligand) VIHVTKEVKEVATLSCGHNVSVEELAQTRIYWQKEKKMVLTMMSGDMNIWPEYKNRTIFDITNNLSIVILALRPSDEGTYECVVLEYEKDAFKREHLAEVTLSVKADFPTPSITDFEIPPSNIRRIICSTSGGFPEPHLFWLENGEELNAISTTVSQDPETELYAVSSKLDFNMTTNHSFMCLIKYGHLRVNQTFNWNTTKQEHFPDNLLPSWAITLISVNGIFVICCLTYCFAPRCRERRRNERLRRESVHPV | 1 |
| Round 2 CTLA4BP 5x5-h12 (ligand) VIHVTKKVKEVATLSCGHNVSVEELAQTRIHWQKEKKMVLTMMSGDMNIWPEYKNRTIFDITNNLSIVILALRPSDEGTYECVVLKYEKDAFKREHLAEVMLSVKADFPTPSISDFEIPPSNIRRIICSTSGGFPEPHLSWLENGEELNAINTTVSQDPGTELYTVSSKLDFNMTTDRSFVCLIKYGHLRVNQTFNWNTPKQEHFPDNLLPSWAITLISVNGIFVICCLTYCFAPRCRERRRNGRLRRESVRPV | 1 |
| Round 2 CTLA4BP 5x6-f6 (ligand) VIHVTKEVKEVATLSCGHNVSVEELAQTPIYWQKEKKMVLTMMSGDMNIWPEYKNRTIFDITNNLSIVILALRPSDEGTYECVVLKYEKDAFKREHLAEVMLSVKADFPTPSITDFEIPPSNIRRIICSTSGGFPEPHLFWLENGEELNAINTTVSQDPETELYTVSSKLDFNMTTNRSFVCLIKYGHLRVNQTFNWNTPKQEHFPDNLLPSWAITLISANGIFVICCLTYRFAPRCRERRRNERLRRESVCPV | 1 |
| Round 2 CTLA4BP 5x9-d10 (ligand) VIHVTKEVKEVATLSCGLNVSVEELAQTRIYWQKGKKMVLTMMSGDMNIWPEYKNRTIFDITNNLSIVILALRPSDEGTYECVVLEYEKDAFKREHLAEVMLSVKADFPTPSISDFEIPPSNIRRIICSTSGGFPEPHLSWLENGEELNAINTTASQDPGTELYTVSSKLDFNMTTNHSFMCLIKYGHLRVNQTFNWNTPKQEHFPDNLLPSWAITLISVNGIFVICCLTHCFAPRCRERRRNERLRRESARPV | 1 |
| Round 2 CTLA4BP-5X2-12F (ligand) VIHVTKEVKEVATLSCGHNVSVEELAQTRIHWQKEKKMVLTMMSGDMNIWPEYKNRTIFDITNNLSIVILALRPSDEGTYECVVLKYEKDAFKREHLAEVTLSVKADFPTPSITDFEIPPSNIKRIICSTSGGFPEPHLSWLENGEELNAINTTVSQDPETELYTVSSKLDFNMTTNHSFMCLIKYGHLRVNQTFNWNTPKQEHFPDNPLPSWAITLISANGIFVICCLTYCFAPRCRERRRNETLRRESVRPV | 1 |
| Round 2 CTLA4BP-5x2-2g (ligand) VIHVTKEVKEVATLSCGHNVSVEELAQTRIHWQKEKKMVLTMMSGDMNIWPEYKNRTIFDITNNLSIVILALRPSDEGTYECVVLKYEKDAFKREHLAEVMLSVKADFPTPSITDFEIPTSNIRRIICSTSGGFPEPHLSWLENGEELNAINTTVSQDPETELYTVSSKLDFNMTTNHSFMCLIKYGHLRVNQTFNWNTPKQEHFPDNLLPSWAITLISVNGIFVICCLTYRFAPRCRERKSNERLRRESVRPV | 2 |
| Round 2 CTLA4BP-5x2-3c (ligand) VIHVTREVKEVATLSCGHNVSVEELAQTRIHWQKEKKMVLTMMSGDMNIWPEYKNRTIFDITNNLSIVILALRPSDEGTYECVVLKYEKDAFKREHLAEVMLSVKADFPTPSISDFEIPTSNIRRIICSTSGGFPEPHLSWLENGEELNAINTTVSQDPETGLYTVSSKLDFNMTTNHSFMCLIKYGHLRVNQTFNWNTPKQEHFPDNLLPSWAITLISVNGIFVICCLTYCFAPRCRERRRNERLRRESVCPV | 2 |
| Round 2 CTLA4BP-5x2-4c (ligand) VIHVTKEVKEVATLSCGLNVSVEELAQTRIYWQKEKKMVLTMMSGDMNIWPEYKNRTIFDITNNLSIVILALRPSDEGTYECVVLEYEKDAFKREHLAEVMLSVKADFPTPSISDFEIPPSNIRRIICSTSGGFPEPHLSWLENGEELNGINTTVSQDPETELYTVSSKLDFNMTTNRSFVCLIKYGHLRVNQTFNWNTPKQEHFPDNLLPSWAITLISVNGIFVICCLTYCFAPRCRERRRNERLRRESVHPV | 1 |
| Round 2 CTLA4BP-5x2-7b (ligand) VIHVTKEVKEVATLSCGHNVSVEELAQTRIHWQKEKKMVLTMMSGDMNIWPEYKNRTIFDITNNLSIVILALRPSDEGTYECVVLKYEKDAFKREHLAEVTLSVKAGFPTPSITDFEIPPSNIRRIICSTSGGFPEPHLSWLENGEELNAINTTVSQDPGTELYTVSSKLDFNMTANHSFVCLIKYGHLRVNQTFNWNTPKQEHFPDNLLPSWAITLISANGIFVICCLTYCFAPRCRERRRNERLRRESVRPV | 1 |
| Round 2 CTLA4BP-5x2-8c (ligand) VIHMTKEVKEVATLSCGHNVSVEELAQTRIYWQKEKKMVLTMMSGDMNIWPEYKNRTIFDITNNLSIVILALRPSDEGTYECVVLKYEKDAFKQEHLAEVMLSVKADFPTPSITDFEIPPSNIRRIICSTSGGFPEPHLFWLENGEELNAINTTVSQDPETELYAVSSKLDFNMTTNHSFVCLIKYGHLRVNQTFNWNTPKQEHFPDNLLPSWAITLISANGIFVICCLTYCFAPRCRERRRNERLRRESVHPV | 2 |
| Round 2 CTLA4BP-5x3-6f (ligand) VIHVTKEVKEVATLSCGHNVSVEELAQTRIYWQKGKKMVLTMMSGDMNIWPEYKNRTIFDITNNLSIVILALRPSDEGTYECVVLEYEKDAFKREHLAEVMLSVKADFPTPSISDFEIPTSNIRRIICSTSGGFPEPHLSWLENGEELNAINTTASQDPETELYTVSSKLDFNMTTNHSFMCLIKYGHLRVNQTFNWNTPKQEHFPDNLLPSWAITLISANGIFVICCLAYCFAPGCRERKSNERLRRESVRPV | 2 |
| Round 2 CTLA4BP-5x3-10e (ligand) VIHVTKEVKEVATLSCGHNVSVEELAQTRIYWQKEKKMVLTMMSGDMNIWPEYKNRTIFDITNNLSIVILALRPSDEGTYECVVLEYEKDAFKREHLAEVTLSVKADFPTPSISDFEIPPSNIRRIICSTSGGFPEPHLFWLENGEELNAINTTVSQDPETELYAVSSKLDFNMTTNHSFMCLIKYGHLRVNQTFNWNTPKQEHFPDNLLPSWAITLISANGIFVICCLTYCFAPRCRERKSNERLRRESVHPV | 2 |
| Round 2 CTLA4BP-5x3-11b (ligand) VIHVTKEVKEVATLSCGHNVSVEELAQTRIYWQKEKKMVLTMMSGDMNIWPEYKNRTIFDITNNLSIVILALRSSDEGTYECVVLKYEKDAFKREHLAEVTLSVKADFPTPSITDFEIPPSNIRRIICSTSGGFPEPHLSWLENGEELNAISTTVSQDPETELYTVSSKLDFNMTTNRSFVCLIKYGHLRVNQTFNWNTPKQEHFPDNLLPSWAITLISVNGIFVICCLTYCFAPRCRERRSNERLRRESVRPV | 1 |

From patent publication US20050154189A1 (MAXYGEN, published 2005)
